Reference: patent US20260125454A1 (SHANGHAI JUNSHI BIOSCIENCES, published 2026)
Where a chain is given by its changes, count along the chain named.

T1: Biotin-huCGRPaSA (human, not fully specified; biotin (position not given))
T1 construct: exact construct ('aSA') not explained; also called Biotin CGRPaSA; full-length (1-37) CGRP
T1 peptide: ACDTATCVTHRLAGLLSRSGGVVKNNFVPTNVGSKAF

B1: hu170 (antibody, V domains shown)
VH: QVQLVQSGAEVKKPGASVKVSCKASGYTFTDYNMHWVRQAPGQGLEWMGYISPYNGGTAYNQKFKFRVTLTVDTSSSTAYMELSRLRSDDTVVYYCAREGLGGYWGQGTLVTVSS
VL: DIVLTQSPASLAVSPGQRATITCKASQNIDYDGYAYLNWYQQKPGQPPKVLIYSVFNLESGVPARFSGSGSGTDFTLTINPVEANDTANYYCQQSNEFPYTFGQGTKLEIK
notes: 3E5 HC-3/1A2 LC2-1
B2: hu213 (antibody, V domains shown)
VH: B1 VH with S52Y, G57H, A59V, K65R, F66N, S84R, R85S, V92A
VL: EIVLTQSPATLSLSPGERATLSCKASQNIDFDGYAYMNWYQQKPGQAPRVLIYSVFNLESGIPARFSGSGSGTDFTLTISSLEPEDFAVYYCQQSHEVPYTFGQGTKLEIK
notes: 3H10 HC-2/1F5 LC1-1
B3: hu110 (antibody, V domains shown)
VH: B1 VH with Y50N, S52Y, A59V, K65N, F66N, V92A
VL: B2 VL with Q42H
notes: 2B8 HC1-1/1F5 LC1-2
B4: hu31 (antibody, V domains shown)
VH: QVQLVQSGAEVKKPGASVKVSCKASGYTFIDFNMHWVRQAPGQRLEWMGYIYPYNGDVVYNQNFTNRVTLTVDTSSSTAYMELSSLRSEDTAVYYCAREGLGGYWGQGTLVTVSS
VL: B2 VL
notes: 1F5 HC-1/1F5 LC1-1
B5: hu196 (antibody, V domains shown)
VH: B1 VH with S52Y, G57H, A59V, K65R, F66N, L70M, S84R, R85S, V92A, R98K
VL: B1 VL
notes: 3H10 HC-1/1A2 LC2-1
B6: hu107 (antibody, V domains shown)
VH: B1 VH with Y50N, S52Y, A59V, K65N, F66N, V92A
VL: B2 VL with F31Y, M37L, H96N, V98F
notes: 2B8 HC1-1/1A2 LC2-3
B7: hu6 (antibody, V domains shown)
VH: QVQLVQSGAEVKKPGASVKVSCKASGYTFTDYNMHWVRQAPGQGLEWMGYIFPYNGVAVYNRKFRSRVTLTIDTSSSTAYMELRSLRSDDTAVYYCAREGLGGYWGQGTLVTVSS
VL: B2 VL with Q42H
notes: 1B2 HC-1/1F5 LC1-2
B8: hu183 (antibody, V domains shown)
VH: B1 VH with A24T, G44R, G56A, R85S, D89E, V92A
VL: B1 VL
notes: 3E5 HC-4/1A2 LC2-1
B9: hu215 (antibody, V domains shown)
VH: B7 VH with F52Y, V57H, A58T, R62Q, S66N, I72V
VL: B1 VL with Y31F, L37M, N85D, N96H, F98V
notes: 3H10 HC-2/1F5 LC1-3
B10: hu55 (antibody, V domains shown)
VH: B4 VH with I30T, R44G, S84R, E89D
VL: B2 VL with F31Y, M37L, H96N, V98F
notes: 1F5 HC-3/1A2 LC2-3
B11: hu176 (antibody, V domains shown)
VH: B1 VH
VL: B1 VL with Y31F, L37M, N85D, N96H, F98V
notes: 3E5 HC-3/1F5 LC1-3
B12: hu57 (antibody, V domains shown)
VH: B4 VH with I30T, R44G, S84R, E89D
VL: B2 VL
notes: 1F5 HC-3/1F5 LC1-1
B13: hu42 (antibody, V domains shown)
VH: B4 VH with I30T
VL: B2 VL with F31Y, M37L, H96N, V98F
notes: 1F5 HC-2/1A2 LC2-3
B14: hu18 (antibody, V domains shown)
VH: B7 VH with G44R, I72V, R84S, D89E
VL: B2 VL
notes: 1B2 HC-2/1F5 LC1-1
B15: hu133 (antibody, V domains shown)
VH: B1 VH with Y50N, S52Y, G56A, A59V, K65N, F66N, V92A
VL: B2 VL with F31Y, M37L, H96N, V98F
notes: 2B8 HC1-3/1A2 LC2-3
B16: hu44 (antibody, V domains shown)
VH: B4 VH with I30T
VL: B2 VL
notes: 1F5 HC-2/1F5 LC1-1
B17: hu122 (antibody, V domains shown)
VH: B7 VH with Y50N, F52Y, V57G, A58T, R62Q, R65N, S66N, I72V
VL: B2 VL
notes: 2B8 HC1-2/1F5 LC1-1
B18: hu109 (antibody, V domains shown)
VH: B1 VH with Y50N, S52Y, A59V, K65N, F66N, V92A
VL: B2 VL
notes: 2B8 HC1-1/1F5 LC1-1
B19: hu202 (antibody, V domains shown)
VH: B7 VH with F52Y, V57H, A58T, R62Q, S66N, L70M, I72V, R98K
VL: B1 VL with Y31F, L37M, N85D, N96H, F98V
notes: 3H10 HC-1/1F5 LC1-3
B20: hu197 (antibody, V domains shown)
VH: B7 VH with F52Y, V57H, A58T, R62Q, S66N, L70M, I72V, R98K
VL: B1 VL with N85D
notes: 3H10 HC-1/1A2 LC2-2
B21: hu97 (antibody, V domains shown)
VH: B1 VH with G44R, I51V, S52Y, T58S, F66S, R85S, D89E, V92A
VL: B2 VL with Q42H
notes: 2A2 HC-1/1F5 LC1-2
B22: hu5 (antibody, V domains shown)
VH: B7 VH
VL: B2 VL
notes: 1B2 HC-1/1F5 LC1-1
B23: hu19 (antibody, V domains shown)
VH: B7 VH with G44R, I72V, R84S, D89E
VL: B2 VL with Q42H
notes: 1B2 HC-2/1F5 LC1-2
B24: hu83 (antibody, V domains shown)
VH: B4 VH with G56A, N63D
VL: B2 VL
notes: 1F5 HC-5/1F5 LC1-1
B25: hu16 (antibody, V domains shown)
VH: B7 VH with G44R, I72V, R84S, D89E
VL: B2 VL with F31Y, M37L, H96N, V98F
notes: 1B2 HC-2/1A2 LC2-3
B26: hu209 (antibody, V domains shown)
VH: B7 VH with F52Y, V57H, A58T, R62Q, S66N, I72V
VL: B1 VL
notes: 3H10 HC-2/1A2 LC2-1
B27: hu123 (antibody, V domains shown)
VH: B7 VH with Y50N, F52Y, V57G, A58T, R62Q, R65N, S66N, I72V
VL: B2 VL with Q42H
notes: 2B8 HC1-2/1F5 LC1-2
B28: hu184 (antibody, V domains shown)
VH: B1 VH with A24T, G44R, G56A, R85S, D89E, V92A
VL: B1 VL with N85D
notes: 3E5 HC-4/1A2 LC2-2
B29: hu96 (antibody, V domains shown)
VH: B1 VH with G44R, I51V, S52Y, T58S, F66S, R85S, D89E, V92A
VL: B2 VL
notes: 2A2 HC-1/1F5 LC1-1
B30: hu120 (antibody, V domains shown)
VH: B7 VH with Y50N, F52Y, V57G, A58T, R62Q, R65N, S66N, I72V
VL: B2 VL with F31Y, M37L, H96N, V98F
notes: 2B8 HC1-2/1A2 LC2-3
B31: hu3 (antibody, V domains shown)
VH: B7 VH
VL: B2 VL with F31Y, M37L, H96N, V98F
notes: 1B2 HC-1/1A2 LC2-3
B32: hu171 (antibody, V domains shown)
VH: B1 VH
VL: B1 VL with N85D
notes: 3E5 HC-3/1A2 LC2-2

Biological target: T1, Biotin-huCGRPaSA
Assay: ELISA, supernatant; relative to chimeric C245
Method in brief: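 Antibodies, including reference chimeric C245, titrated 2.5-fold from 1000 ng/mL and incubated 60 min at 37°C on wells coated with 1.0 μg/mL biotin-CGRPaSA and blocked with 2% BSA. Bound IgG detected with HRP anti-human Fc antibody and TMB, acid-stopped, absorbance 450/620 nm.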

Question: With B1 as the binder, how does the “Relative binding activity, %” value read?
Answer: 75%

Question: With B2 as the binder, how does the “Relative binding activity, %” value read?
Answer: 38%

Question: Which “Relative binding activity, %” value does the source give for B3 here?
Answer: 85%

Question: With B4 as the binder, how does the “Relative binding activity, %” value read?
Answer: 79%

Question: Which “Relative binding activity, %” value does the source give for B5 here?
Answer: 45%

Question: B6 was tested. Which “Relative binding activity, %” value did it give?
Answer: 73%

Question: For B7, which “Relative binding activity, %” value is on record?
Answer: 93%

Question: How did the “Relative binding activity, %” value turn out when B8 was run?
Answer: 26%

Question: For B9, which “Relative binding activity, %” value is on record?
Answer: 94%

Question: Which “Relative binding activity, %” value does the source give for B10 here?
Answer: 18%

Question: For B11, which “Relative binding activity, %” value is on record?
Answer: 65%

Question: How did the “Relative binding activity, %” value turn out when B12 was run?
Answer: 78%

Question: Which “Relative binding activity, %” value does the source give for B13 here?
Answer: 55%

Question: B14 was tested. Which “Relative binding activity, %” value did it give?
Answer: 67%

Question: Which “Relative binding activity, %” value does the source give for B15 here?
Answer: 81%

Question: With B16 as the binder, how does the “Relative binding activity, %” value read?
Answer: 99%

Question: For B17, which “Relative binding activity, %” value is on record?
Answer: 97%

Question: Which “Relative binding activity, %” value does the source give for B18 here?
Answer: 78%

Question: With B19 as the binder, how does the “Relative binding activity, %” value read?
Answer: 90%

Question: How did the “Relative binding activity, %” value turn out when B20 was run?
Answer: 49%

Question: For B21, which “Relative binding activity, %” value is on record?
Answer: 82%

Question: B22 was tested. Which “Relative binding activity, %” value did it give?
Answer: 88%

Question: With B23 as the binder, how does the “Relative binding activity, %” value read?
Answer: 73%

Question: With B24 as the binder, how does the “Relative binding activity, %” value read?
Answer: 102%

Question: Which “Relative binding activity, %” value does the source give for B25 here?
Answer: 39%

Question: How did the “Relative binding activity, %” value turn out when B26 was run?
Answer: 64%

Question: How did the “Relative binding activity, %” value turn out when B27 was run?
Answer: 96%

Question: With B28 as the binder, how does the “Relative binding activity, %” value read?
Answer: 23%

Question: Which “Relative binding activity, %” value does the source give for B29 here?
Answer: 82%

Question: Which “Relative binding activity, %” value does the source give for B30 here?
Answer: 28%

Question: For B31, which “Relative binding activity, %” value is on record?
Answer: 41%

Question: How did the “Relative binding activity, %” value turn out when B32 was run?
Answer: 63%
